# ± gives the standard deviation of the averaged measurements.
# System: ATP
# Assay: switch fluorescence ratio, 500 uM ATP over buffer (Cy3 cluster intensity, sum of 5 cycles each) (fold (ratio)); higher = stronger signal-on switching upon ATP binding; sequences stand for … in TCGTCGGCAGCGTCAGATGTGTATAAGAGACAGTTTTTTTTTTTTTTTTTTTTTTTTT…TC
# Conditions: aptamer strand: ATP DNA aptamer (quencher-CACCTGGGGGAGTATTGCGGAGGAAGG + anchor), 100 nM annealed; ATP concentration: 500 uM
# Summary of the method: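 Exposure to 500 uM ATP lasted 15 min at 22 °C before imaging, and a selection-buffer image was taken beforehand, for Cy3-labelled switching-strand clusters on a modified Illumina MiSeq flow-cell annealed to 100 nM quencher-labelled ATP aptamer. Five buffer/ATP cycles were run with NaOH stripping and re-annealing between them. The fluorescence ratio per cluster is summed target-cycle over summed buffer-cycle Cy3 intensity, averaged per switch-domain sequence. Clusters outside 100-1000 RFU were excluded.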
row,Sequence,switch fluorescence ratio
1,AGTTAACAGC,0.959 ± 0.04
2,AGTTAACTCA,1.013 ± 0.0056
3,AGTTAAGGGT,0.9925 ± 0.0071
4,AGTTAATAAT,1.01 ± 0.032
5,AGTTAATTTC,0.989 ± 0.03
6,AGTTAATTTT,1.0014 ± 0.0007
7,AGTTACAGTC,1.05 ± 0.073
8,AGTTAGAAAT,1.02 ± 0.03
9,AGTTAGGACA,1 ± 0.031
10,AGTTAGGCCT,1.02 ± 0.039
11,AGTTAGGTTA,1 ± 0.014
12,AGTTAGTTCG,0.969 ± 0.043
13,AGTTATACGG,0.995 ± 0.032
14,AGTTATACGT,1.03 ± 0.048
15,AGTTATCCGG,0.97 ± 0.044
16,AGTTATGCAC,1.024 ± 0.0083
17,AGTTATGTTA,1 ± 0.022
18,AGTTCAATT,0.9971 ± 0.0032
19,AGTTCACTGG,0.979 ± 0.02
20,AGTTCATTT,0.999 ± 0.019
21,AGTTCGTCGT,0.983 ± 0.015
22,AGTTCGTGGG,0.973 ± 0.013
23,AGTTCTACAT,1.01 ± 0.039
24,AGTTCTAGGT,0.986 ± 0.018
25,AGTTCTATTT,1.01 ± 0.021

row,Sequence,switch fluorescence ratio
1,AGTTGAAGTT,1.02 ± 0.039
2,AGTTGAATGT,0.9647 ± 0.0063
3,AGTTGAGCTT,0.987 ± 0.013
4,AGTTGAGGGC,0.98 ± 0.047
5,AGTTGCGATG,0.985 ± 0.014
6,AGTTGCGGTC,0.9516 ± 0.0041
7,AGTTGCGTCC,1.01 ± 0.026
8,AGTTGCTTTT,0.993 ± 0.036
9,AGTTGGATGT,0.977 ± 0.012
10,AGTTGGGAAC,1.01 ± 0.015
11,AGTTGGGCGG,1.02 ± 0.021
12,AGTTGGGGAG,0.9933 ± 0.0023
13,AGTTGGGGGG,0.986 ± 0.01
14,AGTTGGGTGC,0.99 ± 0.018
15,AGTTGGTAGC,1.01 ± 0.011
16,AGTTGTATGT,0.951 ± 0.037
17,AGTTGTGAGG,1.01 ± 0.026
18,AGTTGTGCAG,1.02 ± 0.062
19,AGTTGTGCCT,1.015 ± 0.0036
20,AGTTGTGGGG,0.995 ± 0.032
21,AGTTGTTGGG,0.998 ± 0.013
22,AGTTGTTTAG,1.01 ± 0.012
23,AGTTTAATGT,1 ± 0.027
24,AGTTTACATT,1.02 ± 0.026
25,AGTTTATACT,1.03 ± 0.0032

row,Sequence,switch fluorescence ratio
1,AGTTTATTAT,1.02 ± 0.015
2,AGTTTCAGGT,1.005 ± 0.006
3,AGTTTCTGAG,1.01 ± 0.056
4,AGTTTCTTTT,0.994 ± 0.0026
5,AGTTTGAGGT,0.995 ± 0.023
6,AGTTTGATAG,0.998 ± 0.017
7,AGTTTGATGA,0.989 ± 0.028
8,AGTTTGGCGG,0.923 ± 0.084
9,AGTTTGGCGT,1.01 ± 0.041
10,AGTTTGGGAG,0.992 ± 0.021
11,AGTTTGGGGT,1.01 ± 0.029
12,AGTTTGGTCC,0.997 ± 0.035
13,AGTTTGGTCT,0.984 ± 0.034
14,AGTTTGGTTG,0.991 ± 0.053
15,AGTTTGTAGT,1 ± 0.011
16,AGTTTGTTGG,0.989 ± 0.035
17,AGTTTGTTGT,1.06 ± 0.095
18,AGTTTGTTTG,1.006 ± 0.009
19,AGTTTTAAGC,1.01 ± 0.043
20,AGTTTTAGTC,1.01 ± 0.017
21,AGTTTTCCCT,1.01 ± 0.015
22,AGTTTTGAGA,0.983 ± 0.022
23,AGTTTTGATG,0.9784 ± 0.0044
24,AGTTTTTGAT,0.9692 ± 0.0068
25,AGTTTTTGGT,0.97 ± 0.028

row,Sequence,switch fluorescence ratio
1,AGTTTTTTGC,0.908 ± 0.025
2,AGTTTTTTGT,0.979 ± 0.042
3,ATAAAACAAG,0.99 ± 0.027
4,ATAAAAGAAT,0.998 ± 0.0085
5,ATAAAATATT,0.998 ± 0.022
6,ATAAACCTAA,1.05 ± 0.024
7,ATAAAGATAG,1.0006 ± 7.5e-05
8,ATAAAGGGCG,1.029 ± 0.01
9,ATAAAGTGTG,1.01 ± 0.02
10,ATAAAGTTGA,1 ± 0.034
11,ATAAATAAAA,0.984 ± 0.036
12,ATAAATTGCG,0.9931 ± 0.0086
13,ATAACAAGGG,1.04 ± 0.089
14,ATAACACAGG,1.279 ± 0.0016
15,ATAACCCCGA,1.088 ± 0.0075
16,ATAACCGCGG,0.994 ± 0.025
17,ATAACGAATG,1.01 ± 0.024
18,ATAACGCGGT,0.9967 ± 0.0047
19,ATAACTGCGG,1.02 ± 0.012
20,ATAAGAAGAT,1.022 ± 0.0014
21,ATAAGCACTT,1.22 ± 0.027
22,ATAAGCGCGT,0.999 ± 0.017
23,ATAAGGCTAA,0.982 ± 0.016
24,ATAAGGCTTG,0.968 ± 0.03
25,ATAAGGGAGT,0.9909 ± 0.0033

# Source: the supplement of paper PMC10126150
